Experimental data as given in PMC5906670, “Structural basis of epilepsy-related ligand–receptor complex LGI1–ADAM22” (Nature Communications, 2018).
Each block holds one binder with its values, some of them ahead of it.

How the values were obtained:
[1] = biological target: T1, ADAM22 ECD (C-terminal His6 tag) (human, UniProt Q9P0K1-1 26-729, p.Pro81Arg); test: SEC-MALS; co-purified complexes, 1 g L^−1, ENrich SEC 650 column, 20 mM Tris-HCl (pH 7.5), 150 mM NaCl (standard condition); details: both partners purified
T1 construct: signal peptide in the construct; ADAM22, human, cDNA as NM_021723 except the p.Pro81Arg polymorphism in the Pro domain; also called ADAM22 ectodomain; source: Expi293F, transient, co-expressed with LGI1 EPTP-His6; purified from culture medium (Ni-NTA, SEC)
T1 sequence (looked up): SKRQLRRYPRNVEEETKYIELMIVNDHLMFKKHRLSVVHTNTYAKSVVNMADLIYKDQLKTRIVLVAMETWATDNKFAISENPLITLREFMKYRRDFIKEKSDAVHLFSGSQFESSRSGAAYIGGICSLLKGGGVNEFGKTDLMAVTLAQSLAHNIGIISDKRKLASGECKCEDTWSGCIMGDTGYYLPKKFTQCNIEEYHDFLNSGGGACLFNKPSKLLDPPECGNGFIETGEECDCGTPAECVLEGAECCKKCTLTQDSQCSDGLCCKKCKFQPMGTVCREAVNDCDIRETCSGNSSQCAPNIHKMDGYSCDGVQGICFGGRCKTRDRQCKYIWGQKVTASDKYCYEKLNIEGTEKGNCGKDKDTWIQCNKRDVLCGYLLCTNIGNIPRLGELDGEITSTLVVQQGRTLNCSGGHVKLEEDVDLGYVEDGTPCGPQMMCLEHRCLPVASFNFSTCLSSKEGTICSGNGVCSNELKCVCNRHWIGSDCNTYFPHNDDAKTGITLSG

[2] = biological target: T2, ADAM22 ECD (non-tagged) (human, UniProt Q9P0K1-1 26-729, p.Pro81Arg); test: SEC-MALS; co-purified complexes, 1 g L^−1, ENrich SEC 650 column, 20 mM Tris-HCl (pH 7.5), 500 mM NaCl; details: both partners purified
T2 construct: signal peptide in the construct; ADAM22, human, cDNA as NM_021723 except the p.Pro81Arg polymorphism in the Pro domain; source: Expi293F, transient, co-expressed with His6-tagged LGI1; purified as the complex (Ni-NTA, SEC)
T2 sequence (looked up): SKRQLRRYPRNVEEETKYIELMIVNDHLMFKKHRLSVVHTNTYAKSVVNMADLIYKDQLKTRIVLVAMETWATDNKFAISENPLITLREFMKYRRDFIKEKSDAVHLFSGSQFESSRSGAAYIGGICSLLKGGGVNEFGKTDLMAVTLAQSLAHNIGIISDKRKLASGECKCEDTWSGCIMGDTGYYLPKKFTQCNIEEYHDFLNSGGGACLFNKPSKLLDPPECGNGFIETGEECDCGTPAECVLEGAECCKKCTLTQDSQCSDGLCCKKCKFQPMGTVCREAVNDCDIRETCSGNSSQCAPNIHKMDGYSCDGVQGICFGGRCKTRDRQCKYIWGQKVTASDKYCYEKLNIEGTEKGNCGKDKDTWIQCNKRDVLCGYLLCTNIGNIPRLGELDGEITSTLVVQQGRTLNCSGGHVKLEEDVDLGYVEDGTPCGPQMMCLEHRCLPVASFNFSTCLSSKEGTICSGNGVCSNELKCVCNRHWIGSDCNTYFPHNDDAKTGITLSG

[3] = biological target: the molecule itself; test: as above
[4] = biological target: the molecule itself; test: SEC-MALS; co-purified complexes, 1 g L^−1, ENrich SEC 650 column, 20 mM Tris-HCl (pH 7.5), 150 mM NaCl (standard condition)
[5] = biological target: the molecule itself; test: crystal structure; LGI1^R470A–ADAM22 ECD complex, co-expressed and co-purified; sitting drop, 20 °C, 10% PEG8000, 0.1 M zinc acetate, 0.1 M MES-NaOH (pH 6.0); 7.13 Å
[6] = biological target: the molecule itself; test: SEC-SAXS; LGI1–ADAM22 complex (LGI1^R470A) at 5.7 or 8.2 g L^−1, ENrich SEC 650, 20 mM Tris-HCl (pH 7.5), 150 or 500 mM NaCl, 293 K; scattering curve compared with curves of the 2:2 crystal structure and a 3:3 model
[7] = biological target: T2, ADAM22 ECD (non-tagged); test: SEC-MALS; co-purified complexes, 1 g L^−1, ENrich SEC 650 column, 20 mM Tris-HCl (pH 7.5), 150 mM NaCl (standard condition); details: both partners purified

B2: full-length LGI1 (residues 37–557), C-terminal His6 (ligand, human, UniProt O95970-1 37-557, looked up)
chain: PAKPKCPAVCTCTKDNALCENARSIPRTVPPDVISLSFVRSGFTEISEGSFLFTPSLQLLLFTSNSFDVISDDAFIGLPHLEYLFIENNNIKSISRHTFRGLKSLIHLSLANNNLQTLPKDIFKGLDSLTNVDLRGNSFNCDCKLKWLVEWLGHTNATVEDIYCEGPPEYKKRKINSLSSKDFDCIITEFAKSQDLPYQSLSIDTFSYLNDEYVVIAQPFTGKCIFLEWDHVEKTFRNYDNITGTSTVVCKPIVIETQLYVIVAQLFGGSHIYKRDSFANKFIKIQDIEILKIRKPNDIETFKIENNWYFVVADSSKAGFTTIYKWNGNGFYSHQSLHAWYRDTDVEYLEIVRTPQTLRTPHLILSSSSQRPVIYQWNKATQLFTNQTDIPNMEDVYAVKHFSVKGDVYICLTRFIGDSKVMKWGGSSFQDIQRMPSRGSMVFQPLQINNYQYAILGSDYSFTQVYNWDAEKAKFVKFQELNVQAPRSFTHVSINKRNFLFASSFKGNTQIYKHVIVDLSA
notes: LGI1, human, cDNA NM_005097; 'full length, residues 37–557' (without the signal peptide); PDB 5Y31 holds the R470A mutant of the same limits; also called LGI1^WT; source: Expi293F, transient, co-expressed with non-tagged ADAM22 ECD; purified from culture medium (Ni-NTA, SEC)
stoichiometry N [2]: 1 LGI1 per ADAM22 ECD (2:2)
stoichiometry N [3]: 2 LGI1 chains in the assembly
stoichiometry N [4]: 3 LGI1 chains in the assembly

B3: LGI1^R470A (residues 37–557), C-terminal His6 (ligand, human, UniProt O95970-1 37-557, looked up)
chain: PAKPKCPAVCTCTKDNALCENARSIPRTVPPDVISLSFVRSGFTEISEGSFLFTPSLQLLLFTSNSFDVISDDAFIGLPHLEYLFIENNNIKSISRHTFRGLKSLIHLSLANNNLQTLPKDIFKGLDSLTNVDLRGNSFNCDCKLKWLVEWLGHTNATVEDIYCEGPPEYKKRKINSLSSKDFDCIITEFAKSQDLPYQSLSIDTFSYLNDEYVVIAQPFTGKCIFLEWDHVEKTFRNYDNITGTSTVVCKPIVIETQLYVIVAQLFGGSHIYKRDSFANKFIKIQDIEILKIRKPNDIETFKIENNWYFVVADSSKAGFTTIYKWNGNGFYSHQSLHAWYRDTDVEYLEIVRTPQTLRTPHLILSSSSQRPVIYQWNKATQLFTNQTDIPNMEDVYAVKHFSVKGDVYICLTRFIGDSKVMKWGGSSFQDIQAMPSRGSMVFQPLQINNYQYAILGSDYSFTQVYNWDAEKAKFVKFQELNVQAPRSFTHVSINKRNFLFASSFKGNTQIYKHVIVDLSA
notes: LGI1, human, cDNA NM_005097, residues 37-557; also called LGI1 (in the 'LGI1–ADAM22 complex'); source: Expi293F, transient, co-expressed with non-tagged ADAM22 ECD; purified as the complex (Ni-NTA, SEC)
stoichiometry N [5]: 2 LGI1 chains in the assembly
stoichiometry N [6]: 3 LGI1 chains in the assembly

Second part, the binder after the results:

stoichiometry N [1]: 1 LGI1 EPTP per ADAM22 ECD
B1: LGI1 EPTP (domain or fragment, human, UniProt O95970-1 224-557, looked up)
chain: TEFAKSQDLPYQSLSIDTFSYLNDEYVVIAQPFTGKCIFLEWDHVEKTFRNYDNITGTSTVVCKPIVIETQLYVIVAQLFGGSHIYKRDSFANKFIKIQDIEILKIRKPNDIETFKIENNWYFVVADSSKAGFTTIYKWNGNGFYSHQSLHAWYRDTDVEYLEIVRTPQTLRTPHLILSSSSQRPVIYQWNKATQLFTNQTDIPNMEDVYAVKHFSVKGDVYICLTRFIGDSKVMKWGGSSFQDIQRMPSRGSMVFQPLQINNYQYAILGSDYSFTQVYNWDAEKAKFVKFQELNVQAPRSFTHVSINKRNFLFASSFKGNTQIYKHVIVDLSA
notes: LGI1, human, cDNA NM_005097; EPTP domain, residues 224-557; also called C-terminal epitempin-repeat (EPTP) domain of LGI1; EAR domain; source: Expi293F, transient, co-expressed with His6-tagged ADAM22 ECD; purified from culture medium (Ni-NTA, SEC)

stoichiometry N [7]: 1 LGI1 per ADAM22 ECD
B4: LGI1^R474Q (residues 37–557), C-terminal His6 (ligand, human, UniProt O95970-1 37-557, looked up)
chain: PAKPKCPAVCTCTKDNALCENARSIPRTVPPDVISLSFVRSGFTEISEGSFLFTPSLQLLLFTSNSFDVISDDAFIGLPHLEYLFIENNNIKSISRHTFRGLKSLIHLSLANNNLQTLPKDIFKGLDSLTNVDLRGNSFNCDCKLKWLVEWLGHTNATVEDIYCEGPPEYKKRKINSLSSKDFDCIITEFAKSQDLPYQSLSIDTFSYLNDEYVVIAQPFTGKCIFLEWDHVEKTFRNYDNITGTSTVVCKPIVIETQLYVIVAQLFGGSHIYKRDSFANKFIKIQDIEILKIRKPNDIETFKIENNWYFVVADSSKAGFTTIYKWNGNGFYSHQSLHAWYRDTDVEYLEIVRTPQTLRTPHLILSSSSQRPVIYQWNKATQLFTNQTDIPNMEDVYAVKHFSVKGDVYICLTRFIGDSKVMKWGGSSFQDIQRMPSQGSMVFQPLQINNYQYAILGSDYSFTQVYNWDAEKAKFVKFQELNVQAPRSFTHVSINKRNFLFASSFKGNTQIYKHVIVDLSA
notes: LGI1, human, cDNA NM_005097, residues 37-557; R474Q is a human ADLTE mutation; source: Expi293F, transient, co-expressed with ADAM22 ECD; purified as the complex (Ni-NTA, SEC)
